The results in this text go back to patent US20230406885A1, “CYCLIC PEPTIDES FOR TRAPPING INTERLEUKIN-1 BETA” (MERCK SHARP & DOHME LLC, priority 2022, published 2023).

*1 amine or outer side, *2 acyl side, *3 side chain or, on linkers, in order; H or OH if unused. [ ]: non-standard residue; d: D form. TyrEtNAc = L-tyrosine O-ethyl acetamide, (S)-3-(4-(2-acetamidoethoxy)phenyl)-2-aminopropanoic acid, CC(=O)NCCOc1ccc(C[C@H](N[*:1])C(=O)[*:2])cc1; hF3CF3 = (S)-2-amino-4-(3-(trifluoromethyl)phenyl)butanoic acid, O=C([C@H](CCc1cccc(C(F)(F)F)c1)N[*:1])[*:2]; AbuMph = (S)-2-amino-4-morpholinobutanoic acid, O=C([C@H](CCN1CCOCC1)N[*:1])[*:2]; Trp(4-Cl)(βS-Me) = C[C@@H](c1c[nH]c2cccc(Cl)c12)[C@H](N)C(=O)O; Pro(trans-4-NH2) = O=C([C@@H]1C[C@@H](N[*:3])CN1[*:1])[*:2]; Bip(4'-COOH) = N[C@@H](Cc1ccc(-c2ccc(C(=O)O)cc2)cc1)C(=O)O; Phe(4-COOH) = N[C@@H](Cc1ccc(C(=O)O)cc1)C(=O)O; hTyr = N[C@@H](CCc1ccc(O)cc1)C(=O)O; hPhe = N[C@@H](CCc1ccccc1)C(=O)O; dDab = NCC[C@@H](N)C(=O)O; dNMeA = CN[C@H](C)C(=O)O; Dab = NCC[C@H](N)C(=O)O; Dap = NC[C@H](N)C(=O)O

B1: SEQ ID NO: 137 (Example No. 137) (peptide)
peptide: cyclo([TyrEtNAc]W[Phe(4-COOH)]G[Pro(trans-4-NH2)][Trp(4-Cl)(βS-Me)]D[dNMeA]G[Bip(4'-COOH)]KL[dA][hF3CF3])
SMILES: CC(=O)NCCOc1ccc(C[C@@H]2NC(=O)[C@H](CCc3cccc(C(F)(F)F)c3)NC(=O)[C@@H](C)NC(=O)[C@H](CC(C)C)NC(=O)[C@H](CCCCN)NC(=O)[C@H](Cc3ccc(-c4ccc(C(=O)O)cc4)cc3)NC(=O)CNC(=O)[C@@H](C)N(C)C(=O)[C@H](CC(=O)O)NC(=O)[C@H]([C@@H](C)c3c[nH]c4cccc(Cl)c34)NC(=O)[C@@H]3C[C@@H](N)CN3C(=O)CNC(=O)[C@H](Cc3ccc(C(=O)O)cc3)NC(=O)[C@H](Cc3c[nH]c4ccccc34)NC2=O)cc1
B2: SEQ ID NO: 141 (Example No. 141) (peptide)
peptide: cyclo([TyrEtNAc]W[Phe(4-COOH)]G[Pro(trans-4-NH2)][Trp(4-Cl)(βS-Me)]D[dNMeA]G[Bip(4'-COOH)]W[AbuMph][dA][hTyr])
SMILES: CC(=O)NCCOc1ccc(C[C@@H]2NC(=O)[C@H](CCc3ccc(O)cc3)NC(=O)[C@@H](C)NC(=O)[C@H](CCN3CCOCC3)NC(=O)[C@H](Cc3c[nH]c4ccccc34)NC(=O)[C@H](Cc3ccc(-c4ccc(C(=O)O)cc4)cc3)NC(=O)CNC(=O)[C@@H](C)N(C)C(=O)[C@H](CC(=O)O)NC(=O)[C@H]([C@@H](C)c3c[nH]c4cccc(Cl)c34)NC(=O)[C@@H]3C[C@@H](N)CN3C(=O)CNC(=O)[C@H](Cc3ccc(C(=O)O)cc3)NC(=O)[C@H](Cc3c[nH]c4ccccc34)NC2=O)cc1
B3: SEQ ID NO: 139 (Example No. 139) (peptide)
peptide: cyclo([TyrEtNAc]W[Phe(4-COOH)]G[Pro(trans-4-NH2)][Trp(4-Cl)(βS-Me)]D[dNMeA]G[Bip(4'-COOH)]KS[dDab][hTyr])
SMILES: CC(=O)NCCOc1ccc(C[C@@H]2NC(=O)[C@H](CCc3ccc(O)cc3)NC(=O)[C@@H](CCN)NC(=O)[C@H](CO)NC(=O)[C@H](CCCCN)NC(=O)[C@H](Cc3ccc(-c4ccc(C(=O)O)cc4)cc3)NC(=O)CNC(=O)[C@@H](C)N(C)C(=O)[C@H](CC(=O)O)NC(=O)[C@H]([C@@H](C)c3c[nH]c4cccc(Cl)c34)NC(=O)[C@@H]3C[C@@H](N)CN3C(=O)CNC(=O)[C@H](Cc3ccc(C(=O)O)cc3)NC(=O)[C@H](Cc3c[nH]c4ccccc34)NC2=O)cc1
B4: SEQ ID NO: 144 (Example No. 144) (peptide)
peptide: cyclo([TyrEtNAc]W[Phe(4-COOH)]G[Pro(trans-4-NH2)][Trp(4-Cl)(βS-Me)]D[dNMeA]G[Bip(4'-COOH)]W[Dap][dA][hPhe])
SMILES: CC(=O)NCCOc1ccc(C[C@@H]2NC(=O)[C@H](CCc3ccccc3)NC(=O)[C@@H](C)NC(=O)[C@H](CN)NC(=O)[C@H](Cc3c[nH]c4ccccc34)NC(=O)[C@H](Cc3ccc(-c4ccc(C(=O)O)cc4)cc3)NC(=O)CNC(=O)[C@@H](C)N(C)C(=O)[C@H](CC(=O)O)NC(=O)[C@H]([C@@H](C)c3c[nH]c4cccc(Cl)c34)NC(=O)[C@@H]3C[C@@H](N)CN3C(=O)CNC(=O)[C@H](Cc3ccc(C(=O)O)cc3)NC(=O)[C@H](Cc3c[nH]c4ccccc34)NC2=O)cc1
B5: SEQ ID NO: 145 (Example No. 145) (peptide)
peptide: cyclo([TyrEtNAc]W[Phe(4-COOH)]G[Pro(trans-4-NH2)][Trp(4-Cl)(βS-Me)]D[dNMeA]G[Bip(4'-COOH)]W[Dap][dA][hTyr])
SMILES: CC(=O)NCCOc1ccc(C[C@@H]2NC(=O)[C@H](CCc3ccc(O)cc3)NC(=O)[C@@H](C)NC(=O)[C@H](CN)NC(=O)[C@H](Cc3c[nH]c4ccccc34)NC(=O)[C@H](Cc3ccc(-c4ccc(C(=O)O)cc4)cc3)NC(=O)CNC(=O)[C@@H](C)N(C)C(=O)[C@H](CC(=O)O)NC(=O)[C@H]([C@@H](C)c3c[nH]c4cccc(Cl)c34)NC(=O)[C@@H]3C[C@@H](N)CN3C(=O)CNC(=O)[C@H](Cc3ccc(C(=O)O)cc3)NC(=O)[C@H](Cc3c[nH]c4ccccc34)NC2=O)cc1
B6: SEQ ID NO: 142 (Example No. 142) (peptide)
peptide: cyclo([TyrEtNAc]W[Phe(4-COOH)]G[Pro(trans-4-NH2)][Trp(4-Cl)(βS-Me)]D[dNMeA]G[Bip(4'-COOH)]W[Dab][dA][hPhe])
SMILES: CC(=O)NCCOc1ccc(C[C@@H]2NC(=O)[C@H](CCc3ccccc3)NC(=O)[C@@H](C)NC(=O)[C@H](CCN)NC(=O)[C@H](Cc3c[nH]c4ccccc34)NC(=O)[C@H](Cc3ccc(-c4ccc(C(=O)O)cc4)cc3)NC(=O)CNC(=O)[C@@H](C)N(C)C(=O)[C@H](CC(=O)O)NC(=O)[C@H]([C@@H](C)c3c[nH]c4cccc(Cl)c34)NC(=O)[C@@H]3C[C@@H](N)CN3C(=O)CNC(=O)[C@H](Cc3ccc(C(=O)O)cc3)NC(=O)[C@H](Cc3c[nH]c4ccccc34)NC2=O)cc1
B7: SEQ ID NO: 140 (Example No. 140) (peptide)
peptide: cyclo([TyrEtNAc]W[Phe(4-COOH)]G[Pro(trans-4-NH2)][Trp(4-Cl)(βS-Me)]D[dNMeA]G[Bip(4'-COOH)]W[AbuMph][dA]G)
SMILES: CC(=O)NCCOc1ccc(C[C@@H]2NC(=O)CNC(=O)[C@@H](C)NC(=O)[C@H](CCN3CCOCC3)NC(=O)[C@H](Cc3c[nH]c4ccccc34)NC(=O)[C@H](Cc3ccc(-c4ccc(C(=O)O)cc4)cc3)NC(=O)CNC(=O)[C@@H](C)N(C)C(=O)[C@H](CC(=O)O)NC(=O)[C@H]([C@@H](C)c3c[nH]c4cccc(Cl)c34)NC(=O)[C@@H]3C[C@@H](N)CN3C(=O)CNC(=O)[C@H](Cc3ccc(C(=O)O)cc3)NC(=O)[C@H](Cc3c[nH]c4ccccc34)NC2=O)cc1
B8: SEQ ID NO: 143 (Example No. 143) (peptide)
peptide: cyclo([TyrEtNAc]W[Phe(4-COOH)]G[Pro(trans-4-NH2)][Trp(4-Cl)(βS-Me)]D[dNMeA]G[Bip(4'-COOH)]W[Dab][dA][hTyr])
SMILES: CC(=O)NCCOc1ccc(C[C@@H]2NC(=O)[C@H](CCc3ccc(O)cc3)NC(=O)[C@@H](C)NC(=O)[C@H](CCN)NC(=O)[C@H](Cc3c[nH]c4ccccc34)NC(=O)[C@H](Cc3ccc(-c4ccc(C(=O)O)cc4)cc3)NC(=O)CNC(=O)[C@@H](C)N(C)C(=O)[C@H](CC(=O)O)NC(=O)[C@H]([C@@H](C)c3c[nH]c4cccc(Cl)c34)NC(=O)[C@@H]3C[C@@H](N)CN3C(=O)CNC(=O)[C@H](Cc3ccc(C(=O)O)cc3)NC(=O)[C@H](Cc3c[nH]c4ccccc34)NC2=O)cc1
B9: SEQ ID NO: 138 (Example No. 138) (peptide)
peptide: cyclo([TyrEtNAc]W[Phe(4-COOH)]G[Pro(trans-4-NH2)][Trp(4-Cl)(βS-Me)]D[dNMeA]G[Bip(4'-COOH)]KS[dA][hTyr])
SMILES: CC(=O)NCCOc1ccc(C[C@@H]2NC(=O)[C@H](CCc3ccc(O)cc3)NC(=O)[C@@H](C)NC(=O)[C@H](CO)NC(=O)[C@H](CCCCN)NC(=O)[C@H](Cc3ccc(-c4ccc(C(=O)O)cc4)cc3)NC(=O)CNC(=O)[C@@H](C)N(C)C(=O)[C@H](CC(=O)O)NC(=O)[C@H]([C@@H](C)c3c[nH]c4cccc(Cl)c34)NC(=O)[C@@H]3C[C@@H](N)CN3C(=O)CNC(=O)[C@H](Cc3ccc(C(=O)O)cc3)NC(=O)[C@H](Cc3c[nH]c4ccccc34)NC2=O)cc1

The target of this assay is Recombinant human IL-1β (BioLegend 579404) (human, UniProt P01584 117-269). The assay can be described thus: cell-based or functional assay.
On to B1, for which the “MRC5 IC50” value was found to be 0.0939 nM.

Take B2: the “MRC5 IC50” value is 0.177 nM.

B3: the “MRC5 IC50” value was 0.133 nM.

B4: the “MRC5 IC50” value was found to be 0.0749 nM.

As for B5, the “MRC5 IC50” value amounted to 0.0748 nM.

With B6, the “MRC5 IC50” value is 0.159 nM.

With B7, the “MRC5 IC50” value was determined as 0.515 nM.

For B8, the “MRC5 IC50” value is 0.23 nM.

Regarding B9, the “MRC5 IC50” value amounted to 0.214 nM.
